Source: paper PMC6508887

B1: MmOGOR (Magnetococcus marinus MC-1) (protein)
chain 1: MEKKDLIIRVAGEGGEGIISSGDFIAAACARAGLEVYTFKTFPAEIKGGYAMYQVRASSEKLYCQGDTFDVFCAFNGEAYEQNKDKIKPGTAFVYDYPGGDFEPDEIPEGVFAYPIPMSQTAKEMKSYRSKNMVALGALSELFNISENTLKEVLSDKFGKKGEEVLAFNLEAFDKGKALAKALTKADPFRVADPQEPKDVIIMAGNDAVGLGGILGGLEFFSAYPITPATEVAKYVATHLPKCGGDLVQAEDEIASIAQVLGASYAGKKSMTATSGPGLALMSEMLGMAHMSETPCLVVDVQRGGPSTGLPTKHEQSDLFLAIHGGHGDSPRIVLSVEDVKDCISMTVDGLNLAEKYQAPVIVLSDGSLAFSTQTIPRPKPEDFTIINRKTWDGQGTYKRYELTEDNISPMAAPGTPNAKHIATGLEHGETGAPNYSPANHELMHRKRFNKQNSVLDFYKNMEVEGVEGEADVGIITWGSTIGVVREAMQRLTAEGLKVKAMYPKLLWPMPVADYDAFGATCKKVIVPEVNFQGQLSHFIRAETSIKPIPYTICGGLPFTPEMIVNRVKEEIQ
chain 2: MTVEAFHKMENMKPKDYKSEVPTTWCPGCGHFGILNGVYRAMAELGIDSTKFAAISGIGCSSRMPYFVDSYKMHTLHGRAGAVATGTQVARPDLCVVVAGGDGDGFSIGGGHMPHMARKNVNMTYVLMDNGIYGLTKGQYSPTSRPEMTAYTTPYGGPENPMNPLLYMLTYGATYVAQAFAGKPKDCAELIKGAMEHEGFAYVNIFSQCPTFNKIDTVDFYRDLVEPIPEDHDTSDLGAAMELARRPGGKAPTGLLYKTSAPTLDQNLAKIRERLGGHVGYDKNKIIALAKP

What was measured:
[1] = biological target: 2-oxoglutarate:ferredoxin oxidoreductase from Magnetococcus marinus MC-1, αβ heterodimer (catalytic unit) (Magnetococcus marinus MC-1)
[2] = substrate: CC(C)(COP(=O)(O)OP(=O)(O)OC[C@H]1O[C@@H](n2cnc3c(N)ncnc32)[C@H](O)[C@@H]1OP(=O)(O)O)[C@@H](O)C(=O)NCCC(=O)NCCS; experiment: steady-state 2-oxoglutarate oxidation assay; type: biochemical, Magnetococcus marinus; conditions: pH 8.5, 2-oxoglutarate oxidation direction
[3] = substrate: O=C(O)CCC(=O)C(=O)O; experiment: steady-state 2-oxoglutarate oxidation assay; type: biochemical, Magnetococcus marinus; conditions: pH 8.5, apparent KM

| KM of WT MmOGOR for MmFd1, CO2 reduction, pH 7.0 [1] [μM] | Molecule | Km [2] [µM] | kcat [2] [s⁻¹] | kcat/Km [2] [M⁻¹ s⁻¹] | Km [3] [µM] | kcat [3] [s⁻¹] | kcat/Km [3] [M⁻¹ s⁻¹] |
| --- | --- | --- | --- | --- | --- | --- | --- |
| 1.3 | Magnetococcus marinus MC-1 ferredoxin 1 (natural protein) | – | – | – | – | – | – |
| – | B1 | 6.8 | 24.7 | 3.6e+06 | 4400 | 30.3 | 6900 |
